Laboratory results taken from PMC5645467, “Three-dimensional context rather than NLS amino acid sequence determines importin α subtype specificity for RCC1” (Nature Communications, 2017).
Positions count from the first letter of the chain named. In names and notes the source's numbering stands.

T1: GST-ΔIBB-importin α3 (human, UniProt O00629 59-521)
T1 construct: human importin α3 lacking the N-terminal IBB domain; also called GST-tagged importin α3 (lacking the IBB); source: E. coli BL21(DE3) AI or BL21(DE3), pGEX-6P, purified (glutathione resin); not shown: GST, N-terminal, kept
T1 sequence (looked up): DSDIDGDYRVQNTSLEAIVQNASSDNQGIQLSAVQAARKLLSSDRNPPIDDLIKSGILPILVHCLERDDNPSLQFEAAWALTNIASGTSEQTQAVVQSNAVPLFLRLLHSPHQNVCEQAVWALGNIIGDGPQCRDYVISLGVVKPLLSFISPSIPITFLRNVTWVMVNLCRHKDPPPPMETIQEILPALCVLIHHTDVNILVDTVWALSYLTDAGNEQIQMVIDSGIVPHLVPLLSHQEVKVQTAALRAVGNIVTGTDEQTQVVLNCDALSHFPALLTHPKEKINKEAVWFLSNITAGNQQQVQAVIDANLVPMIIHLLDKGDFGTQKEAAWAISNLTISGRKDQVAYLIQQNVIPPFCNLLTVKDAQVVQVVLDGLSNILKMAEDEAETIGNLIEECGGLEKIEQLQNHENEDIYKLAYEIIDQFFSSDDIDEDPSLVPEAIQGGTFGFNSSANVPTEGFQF

T2: ΔIBB-Kap60 (co-expressed with yeast GST-RCC1) (Saccharomyces cerevisiae, UniProt Q02821 66-542)
T2 construct: yeast importin α Kap60 lacking the N-terminal IBB domain; the methods say ΔIBB-Kap60; source: E. coli BL21-AI, co-expressed with yeast GST-RCC1, purified as complex (glutathione beads, PreScission, SEC)
T2 sequence (looked up): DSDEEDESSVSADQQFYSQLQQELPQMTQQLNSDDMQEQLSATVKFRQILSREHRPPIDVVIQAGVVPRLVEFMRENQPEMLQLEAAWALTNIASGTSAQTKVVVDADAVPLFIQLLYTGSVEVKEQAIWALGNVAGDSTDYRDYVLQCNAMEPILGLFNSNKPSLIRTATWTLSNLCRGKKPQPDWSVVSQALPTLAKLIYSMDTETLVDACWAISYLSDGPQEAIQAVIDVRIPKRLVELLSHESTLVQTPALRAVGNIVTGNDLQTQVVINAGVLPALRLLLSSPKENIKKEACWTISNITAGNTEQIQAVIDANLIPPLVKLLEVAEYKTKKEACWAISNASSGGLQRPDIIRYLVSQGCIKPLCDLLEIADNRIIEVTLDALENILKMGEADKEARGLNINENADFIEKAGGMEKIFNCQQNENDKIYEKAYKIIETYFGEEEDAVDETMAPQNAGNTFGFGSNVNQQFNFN

B1: ΔIBB-importin α3 (as used for ITC) (domain or fragment)
chain: not shown
modifications: Limits not given; taken from the ΔIBB-importin α3 entity of PDB 4UAE (Met + 420 residues, starting VQNTS), which fits the expected complex MW of ~91.2 kDa. A construct running to 521 is possible.
B2: RCC1 (human, wild type, free protein) (natural protein, UniProt P18754 1-421, looked up)
chain: MSPKRIAKRRSPPADAIPKSKKVKVSHRSHSTEPGLVLTLGQGDVGQLGLGENVMERKKPALVSIPEDVVQAEAGGMHTVCLSKSGQVYSFGCNDEGALGRDTSVEGSEMVPGKVELQEKVVQVSAGDSHTAALTDDGRVFLWGSFRDNNGVIGLLEPMKKSMVPVQVQLDVPVVKVASGNDHLVMLTADGDLYTLGCGEQGQLGRVPELFANRGGRQGLERLLVPKCVMLKSRGSRGHVRFQDAFCGAYFTFAISHEGHVYGFGLSNYHQLGTPGTESCFIPQNLTSFKNSTKSWVGFSGGQHHTVCMDSEGKAYSLGRAEYGRLGLGEGAEEKSIPTLISRLPAVSSVACGASVGYAVTKDGRVFAWGMGTNYQLGTGQDEDAWSPVEMMGKQLENRVVLSVSSGGQHTVLLVKDKEQS
notes: human RCC1, predominant isoform RCC1α, synthetic gene; also called free RCC1; WT RCC1; source: E. coli BL21(DE3) AI or BL21(DE3), purified
B3: RCC1-K21A (natural protein, human, UniProt P18754 1-421, looked up)
chain: B2 chain with K21A
notes: human RCC1 (RCC1α) with K21A; also called P2 mutant; source: E. coli BL21(DE3) AI or BL21(DE3), purified
B4: RCC1-R9A (natural protein, human, UniProt P18754 1-421, looked up)
chain: B2 chain with R9A
notes: human RCC1 (RCC1α) with R9A; also called P2′ mutant; source: E. coli BL21(DE3) AI or BL21(DE3), purified
B5: RCC1-R9A/K21A (natural protein, human, UniProt P18754 1-421, looked up)
chain: B2 chain with R9A, K21A
notes: human RCC1 (RCC1α) with R9A and K21A; also called P2/P2′ double mutant; source: E. coli BL21(DE3) AI or BL21(DE3), purified
B6: RCC1-S11E (natural protein, human, UniProt P18754 1-421, looked up)
chain: B2 chain with S11E
notes: human RCC1 (RCC1α) with the phospho-mimetic S11E; also called phospho-mimetic RCC1-S11E; source: E. coli BL21(DE3) AI or BL21(DE3), purified
B7: Δ5-RCC1 (domain or fragment, human, UniProt P18754 6-421, looked up)
chain: IAKRRSPPADAIPKSKKVKVSHRSHSTEPGLVLTLGQGDVGQLGLGENVMERKKPALVSIPEDVVQAEAGGMHTVCLSKSGQVYSFGCNDEGALGRDTSVEGSEMVPGKVELQEKVVQVSAGDSHTAALTDDGRVFLWGSFRDNNGVIGLLEPMKKSMVPVQVQLDVPVVKVASGNDHLVMLTADGDLYTLGCGEQGQLGRVPELFANRGGRQGLERLLVPKCVMLKSRGSRGHVRFQDAFCGAYFTFAISHEGHVYGFGLSNYHQLGTPGTESCFIPQNLTSFKNSTKSWVGFSGGQHHTVCMDSEGKAYSLGRAEYGRLGLGEGAEEKSIPTLISRLPAVSSVACGASVGYAVTKDGRVFAWGMGTNYQLGTGQDEDAWSPVEMMGKQLENRVVLSVSSGGQHTVLLVKDKEQS
notes: human RCC1 (RCC1α) with the first five residues deleted; source: E. coli BL21(DE3) AI or BL21(DE3), purified
B8: Δ10-RCC1 (domain or fragment, human, UniProt P18754 11-421, looked up)
chain: SPPADAIPKSKKVKVSHRSHSTEPGLVLTLGQGDVGQLGLGENVMERKKPALVSIPEDVVQAEAGGMHTVCLSKSGQVYSFGCNDEGALGRDTSVEGSEMVPGKVELQEKVVQVSAGDSHTAALTDDGRVFLWGSFRDNNGVIGLLEPMKKSMVPVQVQLDVPVVKVASGNDHLVMLTADGDLYTLGCGEQGQLGRVPELFANRGGRQGLERLLVPKCVMLKSRGSRGHVRFQDAFCGAYFTFAISHEGHVYGFGLSNYHQLGTPGTESCFIPQNLTSFKNSTKSWVGFSGGQHHTVCMDSEGKAYSLGRAEYGRLGLGEGAEEKSIPTLISRLPAVSSVACGASVGYAVTKDGRVFAWGMGTNYQLGTGQDEDAWSPVEMMGKQLENRVVLSVSSGGQHTVLLVKDKEQS
notes: human RCC1 (RCC1α) lacking the entire minor NLS box; source: E. coli BL21(DE3) AI or BL21(DE3), purified
B9: yRCC1 (yeast RCC1, cleaved from GST, in the purified Kap60:yRCC1 complex) (natural protein, Saccharomyces cerevisiae (strain S288C))
chain: MVKRTVATNGDASGAHRAKKMSKTHASHIINAQEDYKHMYLSVQPLDIFCWGTGSMCELGLGPLAKNKEVKRPRLNPFLPRDEAKIISFAVGGMHTLALDEESNVWSWGCNDVGALGRDTSNAKEQLKDMDADDSSDDEDGDLNELESTPAKIPRESFPPLAEGHKVVQLAATDNMSCALFSNGEVYAWGTFRCNEGILGFYQDKIKIQKTPWKVPTFSKYNIVQLAPGKDHILFLDEEGMVFAWGNGQQNQLGRKVMERFRLKTLDPRPFGLRHVKYIASGENHCFALTKDNKLVSWGLNQFGQCGVSEDVEDGALVTKPKRLALPDNVVIRSIAAGEHHSLILSQDGDLYSCGRLDMFEVGIPKDNLPEYTYKDVHGKARAVPLPTKLNNVPKFKSVAAGSHHSVAVAQNGIAYSWGFGETYAVGLGPFEDDTEVPTRIKNTATQDHNIILVGCGGQFSVSGGVKLSDEDAEKRADEMDD
notes: Saccharomyces cerevisiae RCC1 homolog Prp20p, amplified from a genomic library of strain S288C; also called Prp20p; source: E. coli BL21-AI, co-expressed with ΔIBB-Kap60, cleaved off glutathione beads with PreScission Protease, SEC; not shown: GST, N-terminal, cleaved
B10: GST-RCC1 (full-length human RCC1, wild type) (natural protein, UniProt P18754 1-421, looked up)
chain: B2 chain
notes: human RCC1, predominant isoform RCC1α, synthetic gene (GenScript); β-propeller printed as residues 30–421; Used in the syringe for ITC (methods say GST-RCC1); also called full length GST-RCC1; WT GST-RCC1; source: E. coli BL21(DE3) AI or BL21(DE3), pGEX-6P, glutathione resin; not shown: GST, N-terminal, kept
B11: RCC1 (human, cleaved from GST, in the purified importin α3:RCC1 complex) (natural protein, UniProt P18754 1-421, looked up)
chain: B2 chain
notes: human RCC1, predominant isoform RCC1α, synthetic gene; also called RCC1α; human RCC1; source: E. coli BL21-AI, co-expressed with ΔIBB-importin α3, cleaved off glutathione beads with PreScission Protease, SEC; not shown: GST, N-terminal, cleaved

Legend:
Conditions in all cases: both partners purified
[1] = biological target: B10; experiment: ITC; nano-ITC, 20 °C; GST-RCC1 (300 µM) injected in 2.0 µl increments into 195 µl of ΔIBB-importin α3 or α1 (100 µM); 20 mM Tris-HCl pH 8.0, 150 mM NaCl, 5 mM BME, 0.1 mM PMSF; single set of binding sites model; triplicate
[2] = biological target: T1, GST-ΔIBB-importin α3; experiment: pull-down; purified GST-ΔIBB-importin α3 or GST-ΔIBB-Kap60 (1 µM) pre-incubated with RCC1/yRCC1 (0.75 µM) ~60 min at 4 °C, then bound to glutathione beads, washed three times, eluted with 25 mM reduced glutathione; SDS-PAGE, Coomassie, quantified in triplicate, WT = 100%
[3] = biological target: T2, ΔIBB-Kap60 (co-expressed with yeast …); experiment: SEC-SAXS; Kap60:yRCC1 complex at 5.0 mg ml^-1 on Superose 12 10/300 GL; 20 mM Tris-HCl pH 7.5, 150 mM NaCl, 5% glycerol, 3 mM BME; frames 710–750
[4] = biological target: B1; experiment: ITC; nano-ITC, 20 °C; GST-RCC1 (300 µM) injected in 2.0 µl increments into 195 µl of ΔIBB-importin α3 or α1 (100 µM); 20 mM Tris-HCl pH 8.0, 150 mM NaCl, 5 mM BME, 0.1 mM PMSF; single set of binding sites model; triplicate
[5] = biological target: untagged ΔIBB-importin α3 (co-expressed with GST-RCC1) (human, UniProt O00629 1-521, Limits not given; taken from the ΔIBB-importin α3 entity of PDB 4UAE, which fits the expected complex MW of ~91.2 kDa. The 5TBK entity lists the full-length sequence although the IBB was deleted.); experiment: SAXS; purified importin α3:RCC1 complex in GF buffer, 3.5–7.5 mg ml^-1, physiological salt

Binder	reduction of binding relative to WT RCC1 [2] [%]	further results
B1	–	Kd [1]: 620 ± 100 nM
B2	–	stoichiometry N [2]: 1
B3	25	–
B4	25	–
B5	~85	–
B6	~10	–
B7	~10	–
B8	~60	–
B9	–	stoichiometry N [3]: 1
B10	–	stoichiometry N [4]: < 1
B11	–	stoichiometry N [5]: 1
